Measurements taken from article PMC3395577.

Substrate: O=[N+]([O-])c1ccc(O[C@@H]2O[C@H](CO)[C@@H](O)[C@H](O)[C@H]2O)cc1
Assay: purified protein
Conditions: 50 mM imidazole-potassium buffer pH 6.4, 70°C, Table 2 prints 0.63

B1: BGL (β-glucosidase, Tthe_1813) (Thermoanaerobacterium thermosaccharolyticum DSM 571) (protein)
chain: MSDFNKDFLFGVATASYQVEGAYNEDGRSMSIWDTFCRQDGKVYKGHNGDVACDHYHLYKDDVKMMKDLGIEAYRFSIAWPRIFPEKGHYNPKGIDFYKRLTDELLKNDIKPFVTIYHWDLPQWADDLGGWLNREVVDWFGEYVSKLFNELGGYIRNWITLNEPWCSSFLSYFIGEHAPGHKDLGEAVLVSHNLLLAHGKAVEIFRDINSSDSKIGITLNLNEVFPATDSPEDKAAARIADGFQNRWFLDPIFKGEYPKDMLELFGKYAKTDFITDGDLKRISQKLDFLGVNYYTRAVVKKGNDGILNAEQIDVDNEKTEMGWEVYPESLYNILMRLKNEYTFDLPLYITENGAAYKDVVSDDGHVHDEKRVEFLKKHFKQAKRFIDDGGNLRGYFVWSLMDNFEWAHGYSKRFGIVYVDYETEKRILKDSALWYKNLISTRTI
B1 gave a Km of 620 µM.
